Measured values reported in patent publication US9102922B2, “Trehalose phosphorylases and their use in the biocatalytic production of trehalose-analogues and glycosyl phosphates” (Universiteit Gent, priority 2010, dated 2015).
Numbering of substitutions follows the chain as printed. Names may count otherwise.

How the values were obtained:
[1] = system: trehalose phosphorylase (TP); assay: Phosphorolytic activity of the TP on other α-glucobioses (GOD-POD assay); type: biochemical, Caldanaerobacter subterraneus
Method: (§1) The phosphorolytic activity of the enzyme was determined using a discontinuous assay in which the released glucose is converted by glucose oxidase and peroxidase (GOD-POD)(Werner et al., 1970). The activity was assayed in 30 mM phosphate buffer at pH 7 and 60° C., using 30 mM disaccharide as substrate. The synthetic activity of the enzyme was determined using a discontinuous assay in which the released phosphate is complexed by molybdate and ascorbic acid (Gawronski and Benson, 2004). The activity was assayed in 50 mM MES buffer at pH 6 and 60° C., using 30 mM β-glucose-1-phosphate as donor and 500 mM of acceptor substrates.

intestinal trehalase = conditions: cited from earlier work
TP from C. pacificum = TP from C. pacificum (Caldanaerobacter subterraneus, UniProt Q8RBK9); assay: Synthetic activity of TP on monosaccharide acceptors (released phosphate, molybdate assay); type: biochemical, Carboxydibrachium pacificum; conditions: acceptor 500 mM; 60° C. and pH 6; D-glucose = 100
Method: as §1

[2] = Donor specificity: phosphorolysis of lactotrehalose by CsTP variants (release of βGal1P and βGlc1P); type: biochemical; conditions: for Ratio βGal1P/βGlc1P / Release of βGal1P / Release of βGlc1P: 100 mM lactotrehalose, pH 7 and 60° C.
[3] = Kinetic parameters of TP variants on glucose as acceptor; type: biochemical; conditions: Glc as acceptor; 60° C. and pH 6
Method: (§2) […] The synthetic activity of the enzyme was determined using a discontinuous assay in which the released phosphate is complexed by molybdate and ascorbic acid (Gawronski and Benson, 2004). […] Site-saturation mutagenesis was performed with degenerate primers (NNK) as described by […] et al. (2008), and random mutagenesis was performed with the GeneMorph II EZClone Domain Mutagenesis Kit (Stratagene) according to the manufacturer's instructions. The resulting DNA libraries were transformed into E. coli XL10-Gold, after which the cells were grown on solid LB medium in a Petri dish. Colonies were then transferred to 96-well microtiter plates containing liquid LB medium, in which enzyme expression was induced. Enzyme was extracted by the addition of lysis buffer with a liquid handling robot (Freedom EVO 200, Tecan) and the crude cell extracts were used for enzyme screening. Acceptor screening was performed with the phosphomolybdate assay described above. […] The clones with the highest activity were sequenced to identify the introduced mutations. The improved enzyme variants were then produced and purified as described for the wild-type enzyme, to allow a more detailed characterization.

[4] = substrate: OC[C@H]1OC(O)[C@H](O)[C@@H](O)[C@@H]1O; assay: Synthetic activity of TP on monosaccharide acceptors (released phosphate, molybdate assay); type: biochemical, Carboxydibrachium pacificum; conditions: other: 60° C. and pH 6
[5] = Thermostability of the enzyme (residual activity after incubation); type: physicochemical; conditions: 1 hour incubation at 65° C.
[6] = Phosphorolytic activity of the enzyme: specific activity, optimal pH and temperature; type: biochemical
Method: as §1

[7] = Kinetic parameters of TP variants on galactose as acceptor; type: biochemical; conditions: Gal as acceptor; 60° C. and pH 6
Method: as §2

[8] = Specific activity of TP variant on mannose as acceptor; type: biochemical; conditions: compared with wild-type CsTP
Method: The activity was assayed in 30 mM phosphate buffer at pH 7 and 60° C., using 30 mM disaccharide as substrate. The synthetic activity of the enzyme was determined using a discontinuous assay in which the released phosphate is complexed by molybdate and ascorbic acid (Gawronski and Benson, 2004). […] Site-saturation mutagenesis was performed with degenerate primers (NNK) as described by […] et al. (2008), and random mutagenesis was performed with the GeneMorph II EZClone Domain Mutagenesis Kit (Stratagene) according to the manufacturer's instructions. The resulting DNA libraries were transformed into E. coli XL10-Gold, after which the cells were grown on solid LB medium in a Petri dish. Colonies were then transferred to 96-well microtiter plates containing liquid LB medium, in which enzyme expression was induced. Enzyme was extracted by the addition of lysis buffer with a liquid handling robot (Freedom EVO 200, Tecan) and the crude cell extracts were used for enzyme screening. Acceptor screening was performed with the phosphomolybdate assay described above. […] The clones with the highest activity were sequenced to identify the introduced mutations. The improved enzyme variants were then produced and purified as described for the wild-type enzyme, to allow a more detailed characterization.

## OC[C@H]1O[C@H](O[C@H]2[C@H](O)[C@@H](O)C(O)O[C@@H]2CO)[C@H](O)[C@@H](O)[C@@H]1O (mixture of isomers) [maltose]
[1]
  Activity towards other α-glucobioses: could not be detected

## OC[C@H]1O[C@H](O[C@H]2O[C@H](CO)[C@@H](O)[C@H](O)[C@H]2O)[C@H](O)[C@@H](O)[C@H]1O [lactotrehalose, Galactose-α-1,1-α-glucose]
Intestinal trehalase
  effect on intestinal trehalase: competitive inhibitor
  hydrolysis by intestinal trehalase: not hydrolysed

## O=C[C@@H](O)[C@@H](O)[C@H](O)CO [D-Lyxose]
TP from C. pacificum
  Relative activity (%): 1%

## O=C[C@@H](O)[C@H](O)[C@H](O)CO [D-Arabinose]
TP from C. pacificum
  Relative activity (%): 2%

## OC[C@H]1O[C@H](O[C@H]2C(O)O[C@H](CO)[C@@H](O)[C@@H]2O)[C@H](O)[C@@H](O)[C@@H]1O (some centres unmarked) [kojibiose]
[1]
  Activity towards other α-glucobioses: could not be detected

B1: TP from C. pacificum (Caldanaerobacter subterraneus subsp. tengcongensis MB4) (protein)
chain: MDMVKKTKKPIYPFEDWTIRETEFSIETNYRNETIFAQANGYMGMRGNFEEGYSGPDGTSLKGTYINGFYEIHDIIYPEGGYGFAKTGQTMLNVADSKIIELYVGEEKFDLLKGKIHFYERVLDMKKGCVERKIKWESPSGKIVNVKIKRIVSLQRQHLAVISFSVEPVNFTGNIKFVSAIDGDVRNITESEDVRVGSNLKGRVLETVERGTNGFEGWISQKTQKSNLSYTCAMKNELIGTEKYEVLNNVKEDRVEVAVAFKAEKNRVYILNKFISYYTSKDCDKSETMKLALEEVRRAQEDGFCKIEKEQEEFLQSFWEDADVVIEGDKALQQGIRFNMFHLLQSVGRDGKTNIAAKGLTGEGYEGHYFWDSDIYILPFFLYTKPEIAKALIMYRYNLLDAARNRAKELGHKGALYPWRTIDGPECSAYFPAGTAQYHINADIVYALKKYVEATNDLDFLYDYGCEIVFETARFWEDLGAYIPLKGNKFCINTVTGPDEYTALVDNNAYTNYMAKMNLEYAYDIANKMKKEVPEKYQKVASKLNLKDEEIASWKRAANNMYLPYSEELDIIPQDDSFLYKERITVDEIPEDQFPLLLHWHYLNIYRYQICKQPDVLLLMFLQREKFTIEQLKKNFDYYEPITTHDSSLSPAIFSILANEIGYTDKAYKYFMMTARMDLDDYNDNVKDGIHAAAMAGSWSAVVNGFGGMRVYTDELHFTPGLPEGWKMLSFNVKYKGRKINVKLTHEESVFTLLEGEPIEIFYFDRRVLIKSGENILKGYEEK
[2]
  donor preference in phosphorolysis of lactotrehalose: almost exclusively produces β-Glc1P
  Ratio βGal1P/βGlc1P: 0.04
  Release of βGal1P: 0.13 U/mg
  Release of βGlc1P: 3.0 U/mg
[3]
  Km: 3.5 mM
  kcat: 59 s⁻¹
[4]
  Km: 3.5 ± 0.7 mM
  kcat: 59 ± 5.4 s⁻¹
  kcat/Km: 17000 ± 4000 M⁻¹ s⁻¹
[5]
  activity retained after incubation: 100%
[6]
  optimal pH for phosphorolytic activity: 7
  optimal temperature for phosphorolytic activity: 80 °C
[6]; phosphorolysis of trehalose
  specific activity: 39.8±3.5 U/mg
[7]
  kcat: 54 s⁻¹

B2: A442V: CsTP mutant, Ala442 of SEQ ID N° 1 into Val (protein, listed as Caldanaerobacter subterraneus)
chain: B1 chain with A442V
[3]
  Km: 2.3 mM
  kcat: 67 s⁻¹
[7]
  Km: 70.2 mM
  kcat: 52 s⁻¹

B3: N659Y: CsTP mutant at position 659 of SEQ ID N° 1 (protein, listed as Caldanaerobacter subterraneus)
chain: B1 chain with N659Y
[3]
  Km: 1.2 mM
  kcat: 46 s⁻¹
[7]
  Km: 46.3 mM
  kcat: 51 s⁻¹

B4: L649G: CsTP variant, leucine at position 649 of SEQ ID N° 1 substituted for glycine (protein, listed as Caldanaerobacter subterraneus)
chain: B1 chain with L649G
[2]
  donor preference in phosphorolysis of lactotrehalose: preferentially produced βGal1P
  Ratio βGal1P/βGlc1P: 2.6
  Release of βGal1P: 0.22 U/mg
  Release of βGlc1P: 0.09 U/mg
[2]; compared with wild type
  fold increase in the ratio of beta-galactose-1-phosphate over beta-glucose-1-phosphate release from lactotrehalose: 60 fold

B5: K450N: CsTP with mutation K450N (protein, listed as Caldanaerobacter subterraneus)
chain: B1 chain with K450N
[8]
  change in specific activity on mannose as acceptor: significantly increases

B6: K450S: CsTP mutant, lysine at position 450 of SEQ ID N° 1 substituted for serine (protein, listed as Caldanaerobacter subterraneus)
chain: B1 chain with K450S
[3]
  Km: 2.3 mM
  kcat: 62 s⁻¹
[7]
  Km: 78.4 mM
  kcat: 53 s⁻¹
